The record followed here is paper PMC3202535, “A Novel Metagenomic Short-Chain Dehydrogenase/Reductase Attenuates Pseudomonas aeruginosa Biofilm Formation and Virulence on Caenorhabditis elegans” (PLoS ONE, 2011).

Experiment [1] deals with T1, BpiB09 (uncultured bacterium Bio5, UniProt B2BKB1).
T1 construct: about 720 bp gene; His-tag purified from E. coli BL21 DE3 (pET-19b; also cloned in pET-21a); homotetramer
Kind of experiment: HPLC-MS of reduction to 3-hydroxy-C12-HSL. It counts as biochemical. As to conditions: 1 mM NADPH, 100 mM potassium phosphate pH 7.0, 20% DMSO, 30 C, 16 h; 4 mM substrate (5 mM in Results).

Experiment [2] deals with BpiB09 (soil metagenome (not yet cultivated microbe)). Kind of experiment: SEC; gel permeation chromatography during purification (data not shown). A general note: In gel filtration, larger molecules generally elute earlier.
For experiment [3] the target is unchanged. Description: crystal structure; BpiB09 with NADP+; crystals from 0.1 M citric acid pH 4.5 and 1.5 M LiSO4 at 292 K; space group I422, four copies per asymmetric unit, tetramer completed by a crystallographic dyad; 2.4 Å.
For experiment [4] the target is unchanged. Kind of experiment: AUC; analytical ultracentrifugation of recombinant BpiB09 and its mutants; conditions not given.
In experiment [5] the target is T1, BpiB09. Description: X-ray crystal structure, […] A. It counts as binding. The following applies: 1 mM NADP+ added before crystallisation; 0.1 M citric acid pH 4.5, 1.5 M LiSO4; 292 K; nucleotide site; modelled as partial NADP+, nicotinamide half poorly defined.

T1 sequence (B2BKB1 entry or part of it): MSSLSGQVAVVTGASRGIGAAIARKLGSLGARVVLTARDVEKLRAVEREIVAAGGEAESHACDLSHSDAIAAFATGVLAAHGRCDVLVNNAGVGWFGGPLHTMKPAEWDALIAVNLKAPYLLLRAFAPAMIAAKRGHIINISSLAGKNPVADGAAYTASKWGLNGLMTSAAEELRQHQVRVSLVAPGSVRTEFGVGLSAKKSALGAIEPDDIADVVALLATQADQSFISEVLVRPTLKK

Regarding `CCCCCCCCCC(=O)CC(=O)N[C@H]1CCOC1=O` [3-oxo-C12-HSL, N-(3-oxo-dodecanoyl)-L-homoserine lactone], the “HPLC-MS of reduction to 3-hydroxy-C12-HSL” value on BpiB09 [1] was “analyses of purified enzyme resulted in a turnover of 3-oxo-C12-HSL to 3-hydroxy-C12-HSL”.
As a reminder, the stoichiometry N is the number of molecules, sites or subunits per partner or assembly. Take BpiB09 (enzyme): the stoichiometry N in experiment [2], in experiment [3] and in experiment [4] was 4 each time.
For the compound `NC(=O)c1ccc[n+]([C@@H]2O[C@H](COP(=O)(O)OP(=O)(O)OC[C@H]3O[C@@H](n4cnc5c(N)ncnc54)[C@H](OP(=O)(O)O)[C@@H]3O)[C@@H](O)[C@H]2O)c1` [NADP+], the “X-ray crystal structure, 2.4 A” value at BpiB09 [5] is listed as “adding NADP+ prior to crystallization resulted in a higher occupancy of the bound NADP+”.
